Assay [1] addresses T1, CD300c antigen (Homo sapiens, UniProt Q08708).
T1 sequence (Q08708 21-224): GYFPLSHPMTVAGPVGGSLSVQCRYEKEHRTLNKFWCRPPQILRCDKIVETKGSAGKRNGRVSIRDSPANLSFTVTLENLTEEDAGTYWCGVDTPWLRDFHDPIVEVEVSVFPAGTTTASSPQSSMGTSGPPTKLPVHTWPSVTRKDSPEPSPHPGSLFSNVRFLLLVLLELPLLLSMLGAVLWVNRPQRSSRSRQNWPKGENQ
Put plainly: Binding ELISA of CL7 (Experimental Example 2.3). As to conditions: CL7 diluted from 10 μg/mL. As to the method: CD300c antigen (250 ug/mL) was diluted to a concentration of 800 ng/mL in coating buffer (0.1 M sodium carbon ate, pH 9.0), placed into a 96-well microplate at 100 μL per well, and incubated at 4° C. overnight. The next day, the microplate was washed three times with 200 μL of PBST. Thereafter, 200 μL of a blocking buffer (5% skim milk) was added thereto, followed by blocking at room temperature for 1 hour. The anti-CD300c monoclonal antibody CL7 was diluted to 200 μg/mL in PBS, and the concentration thereof was checked by measurement using Nanodrop (product name: NanoDrop One/One, manufactured by Thermo Fisher Scientific). Subsequently, CL7 was diluted in quadruplicate with PBS starting from 10 μg/mL, and added at 100 μL each, followed by incubation at room temperature for 1 hour. After the incubation, the microplate was washed three times with […] of PBST. A secondary antibody (conjugated anti-Fc IgG) was diluted 1:10,000 in blocking buffer, and added at 100 μL, followed by incubation at room temperature for 1 hour, and then washed three times with 200 μL of PBST. […] Then, 50 μL of 1 N sulfuric acid was added to stop development, and measurement was performed at 450 nm using a microplate reader (product name: Varioskan LUX) to obtain binding affinity results.

Assay [2] deals with CD300a antigen and seven B7 family protein antigens (PD-L1, ICOS Ligand, CD276, B7-H4, CD80, CD86, CD273). As to the kind of experiment: Binding specificity ELISA against B7 family proteins. The conditions noted are these: antigens coated at 8 μg/mL. Here is the method: In order to identify that the anti-CD300c monoclonal antibody CL7 specifically binds only to CD300c without binding to other B7 family proteins, binding ELISA was performed. More specifically, each of CD300c antigen, CD300a antigen, or seven B7 family protein antigens (PD-L1 [B7-H1] (Sino Biological), ICOS Ligand[B7-H2] (Sino Biological), CD276[B7-H3] (Sino Biological), B7-H4 (Sino Biological), CD80[B7-1] (Sino Biological), CD86[B7-2] (Sino Biological), CD273[PD-L2] (Sino Biological)) in a coating buffer (0.1 M sodium carbonate, pH 9.0) was coated on an ELISA plate at a concentration of 8 μg/mL per well, and then bound to the plate by incubation at 2° C. to 8° C. overnight. The unbound antigen was removed by washing with PBST three times, and then […] of blocking buffer (5% skim milk in PBST) was added to each well. Subsequently, blocking was performed at room temperature for 1 hour, followed by washing again with PBST. Thereafter, CL7 was diluted in quadruplicate with PBS, incubated with the antigen at room temperature for 1 hour for antigen binding 1 hour later, and washed three times with PBST. […] Then, 2 N sulfuric acid solution was added to terminate the development reaction, and the absorbance was measured at 450 nm to identify the antibody specifically binding to the CD300c antigen.
In general terms: In an ELISA, binding on a coated surface is turned into a signal by an enzyme label.

Assay [3] concerns colon cancer cell line (CT26) tumor. As to the kind of experiment: Nanostring Immune profiling of CT26 tumor tissue. As to conditions: 25 mg/kg i.p., tumor RNA, vs control. In kind it is in vivo, BALB/c mice. Here is the method:
In order to identify changes in expression of immune cell- and tumor microenvironment-related markers when solid cancer models are administered the anti-CD300c monoclonal antibody (CL7) produced in Example 1, a colon cancer cell line (CT26) at 2×10^5 cells was transplanted by subcutaneous injection into 8-week-old BALB/c mice to prepare syngeneic mouse tumor models. Animal breeding and experiments were all conducted in a specific pathogen free (SPF) facility. In addition, 12 days after transplantation of the colon cancer cell line, the mice with a tumor size of 50 mm^3 to 100 mm^3 were separately administered the anti-CD300c monoclonal antibody, and for a control group, the mice were injected with the same amount of phosphate buffered saline (PBS). The mice were intraperitoneally injected with 25 mg/kg twice a week for two weeks over a total of 4 times. On day 25 after the injection, the mice were euthanized, and the tumor tissue was prepared. RNA was extracted and purified therefrom, and changes in dendritic cell markers, macrophage markers, tumor microenvironment (TME) markers, Th1 response markers, or Th2 response markers were identified through Nanostring Immune profiling.
On the basis of the Nanostring Immune profiling results obtained in Example 2.1, it was identified which immune checkpoint markers show a significant difference in expression compared with the control group when syngeneic mouse tumor models are administered the anti-CD300c monoclonal antibody.

Assay [4] has the same test system. As to the kind of experiment: In vivo cancer growth inhibition, CT26 model, CL7 and anti-PD-1. The arrangement: species or system BALB/c mice. As to conditions: CL7 10 mg/kg, anti-PD-1 10 mg/kg i.p. D12, D15, D19, D22; 25 days. As to the method: In order to identify anticancer effects of the anti-CD300c monoclonal antibody CL7 under in vivo conditions, a colon cancer cell line (CT26) at 2×10^5 cells was transplanted by subcutaneous injection into 8-week-old BALB/c mice to prepare syngeneic mouse tumor models. Animal breeding and experiments were all conducted in a SPF facility. On day 12 (D12) after transplantation of the colon cancer cell line, the mice with a tumor size of 50 mm^3 to 100 mm^3 were administered the anti-CD300c monoclonal antibody and an anti-PD-1 antibody purchased from BioXcell alone or in combination, and for a control group, the mice were administered the same amount of phosphate buffered saline (PBS). Specifically, the mice were intraperitoneally injected with the respective antibodies (CL7: 10 mg/kg; and anti-PD-1 antibody: 10 mg/kg) alone or in combination, twice a week for two weeks (a total of 4 times on D12, D15, D19, and D22). The tumor volume was measured for 25 days.

B1: CL7: anti-CD300c monoclonal antibody, VH3VL1 phage library, VH SEQ ID 327, VL SEQ ID 328 (antibody, V domains shown)
VH: EVQLLESGGGLVQPGGSLRLSCAASGFTFSRYAMSWVRQAPGKGLEWVSAISGSGGSTYYADSVKGRFTISRDNSKNTLYLQMNSLRAEDTAVYYCARSSQGIFDIWGQGTLVTVSS
VL: QSVLTQPPSASGTPGQRVTISCSGNNIGTRRVHWYQQLPDTAPKLLIYSKNNRPSGVPDRFSGSKSGTSASLAISGLRSEDEADYYCAAWDDSLSGPVFGGGTKLTVL
modifications: CL7 Heavy Chain Variable Region; CL7 Light Chain Variable Region
Regarding B1, in assay [1], the “binding to CD300c” value is recorded as “bound to CD300c in a concentration-dependent manner”. In assay [2], the “binding specificity versus other similar proteins” value is given as “specifically recognized only CD300c without binding to other similar proteins”. In assay [3], the “expression of M1 macrophage markers CCR7, CD80” value was “significantly increase”; the “expression of Th1 response markers Tbx21, Stat1, Stat4, Ifn-g, Cxcr3” value was “increase”; the “expression of agonistic immune checkpoints ICOS, OX40, Gitr, Cd27, Cd28” value is “increases”; the “expression of dendritic cell markers Bst2, CCL8, Xcl1” value was “significantly increase”. In assay [3], the “expression of inhibitory immune checkpoints PD-1, CTLA-4, Lag3” value is reported as “increases” and the “expression of tumor microenvironment markers vegfa, pdgfrb, Col4a1, Hif1a” value was “reduction”. The “cancer growth (tumor volume)” value in assay [4] is on record as “inhibited”.

These data come from patent US20240254220A1, “COMBINED THERAPY USING ANTI-CD300C ANTIBODY” (CentricsBio, Inc., priority 2021, published 2024).
